This note sets out measurements from patent publication US20070037246A1 (LIFESENSORS, published 2007).

The assay addresses 6xHis-CTHS-GFP fusion protein (yeast (SUMO/Smt3 part)). Description: mixing of purified proteins in solution, complex shown by Ulp1 cleavage (FIG. 7A). How it is done:
FIG. 7A depicts the experimental results obtained when combining NTHS and CTHS-GFP in solution, resulting in assembly and formation of a cleavable complex. 6xHis-CTHS-GFP fusion protein purified from E. coli was incubated with SUMO hydrolase Ulp1 and 6xHis-NTHS (lanes […]), with 6xHis-NTHS (lanes 1-3) or Ulp1 (lanes 7-9). Release of free GFP can be observed only when all the components are present in the reaction mix. […] Furthermore, purification tags such as, but not limited to 6xHis, GST, MBP, a sequence facilitating covalent coupling to solid support such as Cys residue, may be attached to either the amino- and/or carboxy-termini of NTHS.

B1: 6xHis tagged NTHS (other)
chain: MGHHHHHHGSDSEVNQEAKPEVKPEVKPETHINLKVSDGSSEIFFKIKKTTPLRRLMEAFAK
notes: Purified from E. coli and used in solution in the reconstitution and cleavage experiments; also called 6xHis-NTHS
Consider B1, for which the binding result is on record as “binds”.
